The results in this text go back to patent KR20180081029A (dated 2018).

Assay [1] deals with T1, CD86 expressed on the cell surface of Raji B cells (human, UniProt P42081 24-329).
T1 construct: whole, on cells; Raji cells carry both CD80 and CD86; also called B7.2
T1 sequence (looked up): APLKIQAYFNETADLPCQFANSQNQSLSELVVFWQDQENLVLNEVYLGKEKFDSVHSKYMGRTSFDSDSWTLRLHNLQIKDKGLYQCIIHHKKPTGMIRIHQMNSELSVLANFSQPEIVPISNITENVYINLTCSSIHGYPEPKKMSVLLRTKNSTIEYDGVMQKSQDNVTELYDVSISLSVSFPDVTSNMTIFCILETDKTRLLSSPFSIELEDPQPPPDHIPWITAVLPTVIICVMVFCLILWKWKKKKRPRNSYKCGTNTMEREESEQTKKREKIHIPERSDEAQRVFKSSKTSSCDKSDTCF
Briefly: FACS on Raji B cells (figure legend).

Assay [2] deals with T2, CD86 antigen (R&D systems, Cat. #. 141-B2-100) (human, UniProt P42081 26-245).
T2 construct: Bought reagent
T2 sequence (looked up): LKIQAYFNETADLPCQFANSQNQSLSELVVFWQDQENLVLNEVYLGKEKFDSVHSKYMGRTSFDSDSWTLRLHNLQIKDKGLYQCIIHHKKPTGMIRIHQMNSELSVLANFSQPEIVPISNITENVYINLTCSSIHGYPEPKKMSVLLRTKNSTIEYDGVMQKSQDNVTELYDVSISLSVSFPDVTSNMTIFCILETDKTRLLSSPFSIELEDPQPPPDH
The assay can be described thus: phage bio-panning of a Fab library on the bought antigen, binding checked by Fab ELISA (anti-HA-HRP).

B1: 3A2 (CD86) human antibody, IgG form (antibody, V domains shown)
VH: EVQLLESGGGLVQPGGSLRLSCAASGFTFSYYSMSWVRQAPGKGLEWVSSISYGPGYTYYADSVKGRFTISRDNSKNTLYLQMNSLRAEDTAVYYCARYYYYGYYYGYYGAFDYWGQGTLVTVSS
VL: EIVLTQSPGTLSLSPGERATLSCRASQSVSSSYLAWYQQKPGQAPRLLIYGASSRATGIPDRFSGSGSGTDFTLTISRLEPEDFAVYYCQQGYYSNSTFGQGTKVEIK
notes: Converted to IgG, expressed in 293F cells
Consider B1, for which the binding result in assay [1] is listed as “binds”.

B2: 3A2 (CD86), Fab clone selected from the Rz human antibody library (Fab, V domains shown)
VH: B1 VH
VL: B1 VL
notes: Fab (on phage in the panning, soluble from E. coli in the ELISA, detected with anti-HA-HRP, so it carries an HA tag)
On to B2, for which, in assay [2], the binding result is given as “binds”.
